From patent US20060159681A1 (FUNCTIONAL NEUROSCIENCE, published 2006)
Each block holds one binder with its values, some of them ahead of it.

Columns and labels:
[1] = target: Hsp70 (UniProt P0DMV8 1-641); assay: co-immunoprecipitation from transfected HEK293T lysate
Protocol: (§1) Samples were harvested in lysis-buffer (50 mM Tris-HCl pH 7.4, 150 mM NaCl, 2 mM EDTA, 1% Triton X-100) supplemented with protease inhibitors (Roche). For complete solubilization of the pellet in synphilin ubiquitinylation experiments boiling lysis-buffer with 1% SDS was used. IPs were performed overnight followed by incubation with Protein G sepharose beads (Amersham). PDAs were performed with equimolar amounts of GST- and His-fusion proteins for 1 hr (4° C.). Beads were washed once with lysis-buffer and three times with PBS (pH 7.4).
Therefore, it was tested whether BAG5 may associate with itself by co-transfecting N-terminus GFP-tagged BAG5 (GFP-BAG5) with FLAG-BAG5 in HEK293T cells. […] Indeed, both GFP-BAG5 and GFP-BAG5(DARA) co-immunoprecipitated with FLAG-BAG5(DARA) (FIG. 3E, lane 4 and 6, respectively). It was also confirmed that Hsp70 co-immunoprecipitated with FLAG-BAG5 and not FLAG-BAG5(DARA) (FIG. 3E, lanes 1, 3 and 5 vs. 2, 4 and 6). […] Similar to results from FIG. 3E, GST-BAG5 and GST-BAG5(DARA) interacted with both GFP-BAG5 and GFP-BAG5(DARA), whereas only GST-BAG5 interacted with Hsp70 (FIG. 3F). […] Therefore complexes of BAG5 which contained BAG5(DARA) were unable to bind Hsp70 and inhibited BAG5 activity.

[2] = target: T1, His-Hsp70 (human, UniProt P0DMV8 1-641); assay: in vitro GST pull-down
T1 construct: Purified from E. coli (pDEST17) for the pull-down assays; also called full-length Hsp70; not shown: N-terminal hexa-histidine tag from a pDEST vector
Protocol: as §1
To further examine the nature of the association between parkin, Hsp70 and BAG5, in vitro pull-down experiments using GST-Hsp70, GST-BAG5, or GST-BAG5(DARA) with recombinant N-terminus His-tagged parkin were used. […] Thus, BAG5 interacted directly with parkin in the absence of Hsp70.

[3] = target: T2, endogenous Hsp70 in human brain lysate (human, UniProt P0DMV8 2-641); assay: GST pull-down from human brain SNpc lysate
T2 construct: Native protein in tissue lysate, detected with a monoclonal anti-Hsp70 antibody
T2 sequence (P0DMV8 2-641): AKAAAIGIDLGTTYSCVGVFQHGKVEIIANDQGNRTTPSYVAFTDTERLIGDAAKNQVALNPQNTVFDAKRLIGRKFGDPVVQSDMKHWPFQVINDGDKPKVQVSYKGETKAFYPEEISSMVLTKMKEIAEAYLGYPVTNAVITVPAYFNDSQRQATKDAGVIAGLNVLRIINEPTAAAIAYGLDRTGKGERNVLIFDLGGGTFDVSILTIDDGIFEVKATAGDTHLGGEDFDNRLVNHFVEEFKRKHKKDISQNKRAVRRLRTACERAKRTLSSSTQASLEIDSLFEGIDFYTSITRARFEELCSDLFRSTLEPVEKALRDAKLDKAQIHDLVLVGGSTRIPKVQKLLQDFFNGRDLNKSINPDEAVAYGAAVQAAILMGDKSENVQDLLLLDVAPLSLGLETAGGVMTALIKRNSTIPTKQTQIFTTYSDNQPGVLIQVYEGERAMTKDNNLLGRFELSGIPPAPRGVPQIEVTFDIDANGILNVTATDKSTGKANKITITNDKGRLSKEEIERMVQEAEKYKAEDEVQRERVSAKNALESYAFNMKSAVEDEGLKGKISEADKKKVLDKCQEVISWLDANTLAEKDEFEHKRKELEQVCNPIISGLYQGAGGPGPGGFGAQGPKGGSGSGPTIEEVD

T1 sequence (P0DMV8 whole entry): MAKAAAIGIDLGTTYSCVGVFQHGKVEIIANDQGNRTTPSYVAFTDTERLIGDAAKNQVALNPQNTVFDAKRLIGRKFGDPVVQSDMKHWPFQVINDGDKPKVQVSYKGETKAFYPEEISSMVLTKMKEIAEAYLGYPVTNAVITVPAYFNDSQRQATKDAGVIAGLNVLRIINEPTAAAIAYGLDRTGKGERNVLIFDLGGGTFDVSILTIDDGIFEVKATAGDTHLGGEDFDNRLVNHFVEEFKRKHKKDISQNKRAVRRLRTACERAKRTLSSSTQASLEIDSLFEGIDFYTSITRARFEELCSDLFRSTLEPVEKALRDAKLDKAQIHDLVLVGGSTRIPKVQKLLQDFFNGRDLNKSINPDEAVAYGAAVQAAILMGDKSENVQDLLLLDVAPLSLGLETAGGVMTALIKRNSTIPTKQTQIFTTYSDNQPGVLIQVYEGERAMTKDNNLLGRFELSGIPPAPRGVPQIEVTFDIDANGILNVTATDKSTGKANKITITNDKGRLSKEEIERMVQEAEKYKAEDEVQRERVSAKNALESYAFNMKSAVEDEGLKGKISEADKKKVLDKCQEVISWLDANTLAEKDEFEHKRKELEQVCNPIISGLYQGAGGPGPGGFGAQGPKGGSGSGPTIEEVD
Hsp70, sequence (P0DMV8 whole entry, the tested form may be a part): as the sequence (P0DMV8 whole entry) above

binding result [1]: no binding
B1: FLAG-BAG5(DARA) (other, not shown: small tags and cut ends)
chain: MDMGNQHPSISRLQEIQKEVKSVEQQVIGFSGLSDDKNYKKLERILTKQLFEIASVDTEGKGDIQQAAKRAAQETERLLKELEQNANHPHRIEIQNIFEEAQSLVREKIVPFYNGGNCVTDEFEEGIQDIILRLTHVKTGGKISLRKARYHTLTKICAVQEIIEDCMKKQPSLPLSEDAHPSVAKINFVMCEVNKARGVLIALLMGVNNNETCRHLSCVLSGLIADLAALDVCGRTEIRNYAREVVEDINKLLKYLDLEEEADTTKAFDLRQNHSILKIEKVLKRMREIKNELLQAQNPSELYLSSKTELQGLIGQLAEVSLEKNPCIREAARRAVIEVQTLITYIDLKEALEKRKLFACEEHPSHKAVWNVLGNLSEIQGEVLSFDGNRTDKNYIRLEELLTKQLLALAAVDPQGEEKCKAAAKQAVRLAQNILSYLDLKSDEWEY
notes: Expressed by transfection in HEK293T cells

binding result [2]: no binding
binding result [3]: no binding
B2: GST-BAG5(DARA) (other, not shown: a dimerising Fc or GST; large carriers; small tags and cut ends)
chain: B1 chain
notes: also called mutant BAG5(DARA)
